# Publication doi:10.1101/2022.01.20.477176v3
# B1: ARD (NADH:acrylate oxidoreductase) (Vibrio harveyi) (protein)
# chain: MAQLVDEIVFQSGVKLHNRIVMAPMTIQSAFFDGGVTQEMINYYAARSGGAGAIIVESAFVENYGRAFPGALGIDTDSKIAGLTKLADAIKAKGSKAILQIYHAGRMANPEFNGGHQPISASPVAALRDNAETPLEMTKEQIEEMIERFGDAVNRAILAGFDGVEIHGANTYLIQQFFSPHSNRRNDKWGGNIERRTSFPLAVLAKTKQVAEQHNKSDFIIGYRFSPEEIEQPGIRFDDTMFLLDKLATHGLDYFHFSMGSWLRNSIVTPEDQEPLIDKYRKLQSESVAKVPVIGVGGIAQRKDAENALEQGYDMVSVGKGYLVEPTWANKALNDETCAEFADIAQQEALQIPTPLWEIMDYMIVDSAAEALKHQRIKELQNVPIKFNSGEYTAYGRGHNGDLPVTVTFSEDKILDIVVDSSKESDGIANPAFERIPQQILDGQTLNIDVISGATVSSQAVLDGVSNAVDLAGGNSEALRCKAKEAVAWSSKTIEETVDIVVVGGGGAGLSATLTALDKGKSVVLLEKFPAIGGNTVRTGGWVNAAEPKWQGDFPALPGEKETLMLLAKTAESEFSGEYLEDFKVLKAQLDGYFTDLENGKQYLFDSVELHRIQTYLGGKRTDLNGESIYGQYDLVETLTSRSMESIDWLSEKGIDFDRSVVEIPVGALWRRAHKPKRPKGVEFIDKLSKRIQEQNGRIITDTRATDLMVDNGKVVGIKAVQADGTELILHVNHGVVLASGGFGANTQMIKKYNTYWKEIADDIKTTNSPALVGDGIEIGEKAGAELVGMGFVQLMPVGDPKSGALLTGLIVPPENFVFVNKQGKRFVDECGSRDVLSEAFFDNGGLIYMIADENIRQTAANTSDETIEREIKEGIIIQADTLEELAEKIGVPTQELTNTIAQYNACVDAGQDPEFHKSAFGLKVEKAPFYATPRQPSVHHTMGGLKIDTKARVIGKDGEVIQGLYAAGEVTGGIHAGNRLGGNALIDIFTYGRIAGESASDLV
# Columns and labels:
# Experiment in all cases: purified protein
# purified protein [1] = substrate: C=C(C)C(=O)O; conditions: 150 μM NADH (saturating), pH 6.5
# purified protein [2] = substrate: C=CC(=O)O; conditions: 150 μM NADH (saturating), pH 6.5
# purified protein [3] = substrate: NC(=O)C1=CN([C@@H]2O[C@H](COP(=O)(O)OP(=O)(O)OC[C@H]3O[C@@H](n4cnc5c(N)ncnc54)[C@H](O)[C@@H]3O)[C@@H](O)[C@H]2O)C=CC1; conditions: 1 mM acrylate, pH 6.5
protein,measurement,setting,value
B1,Km,purified protein [1],690 ± 140 µM
same,kcat,purified protein [1],2.5 ± 0.2 s⁻¹
same,Km,purified protein [2],16 ± 1 µM
same,kcat,purified protein [2],19 ± 1 s⁻¹
same,Km,purified protein [3],14 ± 1 µM
